According to the nanobody polyreactivity screen of Harvey et al. (2022):

Assay: yeast display, Sf9 membrane polyspecificity reagent, FACS + sequencing; frameworks hold sequencing errors
Method in brief: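 Galactose induction of a Saccharomyces cerevisiae BJ5465 synthetic nanobody display library ran 36–48 hours. The cells were then stained for 1 hour at 4 °C with 10% biotinylated, detergent-solubilized Sf9 membrane reagent, pulled down on streptavidin microbeads and FACS-sorted into low and high (top ~1%) gates on expression and reagent-binding fluorescence. Labels for polyreactivity follow the gate of origin.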

Sequence | polyreactivity (PSR sort gate)
QVQLVESGGGLVQAGGSLRISCAASGSIFSFYAMGWYRQAPGKERELVAAISSGGSTYYADSVKGRFTISRDNAKNTVYLQMNSLKPEDTAVYYCAHGFAQYGLDLDPGDYDYWGQGTQVTVSS | low polyreactivity
QVELVESGGALVQAGGSLSLSCAASGIIFSIYAMGWDRQAPGKERELVAAITYSGGRTYYADSVKGRFTISRDNAKNTVYLQMNSLKPEDTAVYYCAAVGYGEYYWGQGTQVTVSS | high polyreactivity
QVQLVESGGGVVQAGGSLRLSCAASGSIFRQNTMGWYRQAPGKERELVAAISSGGSTYYADSVKGRFTISRDNAKNTVYLQMNSPKPEDTAVYYCAAYHSFVWGDDYWGQGTQVTVSS | low polyreactivity
QVQLVASGGGLVQAGGSLRLSCSASGSIFKYYAMGWYRQAPGKERELVAAISSSGNTYYADSVKGRFTISRDNAKNTVYLQMNSLKPEDTAVYYCAAGIRRYRTYDYWGQGTQVTVSS | high polyreactivity
QVQLVESGGGLVQAGGSLRLSCAASGRIYPKNTMGWYRQERGKERELVAAINWNGGRTYYADSEKGRFTISRDNAKNTVYLPMNSLKPEYTAVYYCAKDGYWDFDYWGQGTQVTVSS | low polyreactivity
QVQLVESGGGLVQAGGSLRLSCAASGRTFYFYVKGWYRQAPAKERELVARISWSGGSTYYADSVKGRFTISRDNAKNTVYLQMNSLKPEDTAVYYCARQYIYPSSGEYDSWGQGTQVTVSS | low polyreactivity
QVQLVESGGGLVQAGCSLRISCSASGRTFIGYAMGSYRQAPGKERELVAAICRSGGSTYYADSVKGRFTISRDNAKNTVYLQMNSLKPEDTAVYYCAKQRRDDNGGYWGQATQVTVSS | high polyreactivity
QVQLVESGGGLVQAGGSLRLSCAASGRTFYRYAMGWYRQAPGKERELVAAITTGGGSTYYADSVKGRFTISRDNAKNTVYLQMNSLKPEDTAVYYCNVYSSYTRRTLGDYWGQGTQVTVSS | high polyreactivity
QVQLVESGGGLVQAGGSLRLSCAASGSTFKWTAMGWYRPAPGKERELVAAITGSGTGTYYADSVKGRFTISRDNAKNTVYLQMNSLKPEDTAVYYCAAYVYGYKYYYWGQGTQVTVSS | high polyreactivity
QVQLVESGGGLVQAGGSLRLSCAASGSIFWSYAMGWYRHAPGKESELVAAITYSGTSTYYADSVKGRFTISRDTAKNTVYLQMNSLKPEDTAVYYCAASPFSRSRNDYWGQGTQVTLSS | low polyreactivity
QVQLQESGGGLVQAGGSLRLGCAASGNISDAGYMGWYRQAPGKEREFVAAIAAGSNTNYADSVKGRFTISRDNAKNTVNLQMNSLKPEDTAVFYCAVASYARVQYEYWGQGTQVTVNS | low polyreactivity
QVQLVESGGGLVQAGGSLRLSCAASGRTFRDYTMGWYRQAPGNERELVAAITSTGDTNYADSVKGRFTISRDNAKNTVYLQMNSLKPEDTALNYCATQTGEEYQAPLIYDYWGQGTQVTVSS | low polyreactivity
QVQLVESGGGLVQAGGMRRLSCAASGRTFGQYVMGWSRQAPGKERELVAAISRRGGSTYYADSVKGRFTISRDNAKNTVYLQMNSLKPEDTAVYYCAPAGTYTGGEGYLGQGTQVTVSS | high polyreactivity
QVQLVESGGGLVQAGGSLRLSCAASGFIYSGYAIGCYRQAPAKERELVDTNSGSGGSTYYADSVKGRFTISRDNAKNTVYLKMNSLKTEDTAVYYCAARQRGGYGYWGQGTQVTESS | high polyreactivity
QVQLVESGGGLVQAGGSLRLSCAASGRTFAWNAMGWYRQAPRKERELVARIRSSGSTYYADSVKGRFTISRDNAKNTVYLQMNSLKPVDTAVYFCAADIRFWYGYYYWGQGTQVTVSS | high polyreactivity
QVQLVESGGCLVQAGGSLRLSCAASGSTFPRYAMGWYRQAPGKERELVATINSGGSTYYADSVKGCFTISRDNAKNTVYLQMNSLKPEDTAVYYCAAGYRWTYTSGTYIRYNYWGQGTQVTVSS | high polyreactivity
QVQLVESGGGLVQAGGSLRLSCAASGFIFVPYALGWYRQAPGKERELVAAISSGGSTYYADSVKGRFTISRDNAKNTVYLQMNSLKPEDTAVYYCNTRYYLYQYRYDYWGQGTQVTVSS | low polyreactivity
QVQLVESGGGLVQAGGSLRLSCPDSVFTFGATVMGWYRQAPGKEREFVAGITWSGDSTYYADSVKGRFTISRDNAKNTVYFQMNSLKPEDTAVYYCAADVYDGAYILDYDYWGQGTQVTVSS | low polyreactivity
QVQLVESGGGLVQAGGSLRLTCAASGGTFGSYAMGWYRPAPGKERELVAVISSGGSTYYADSVKGRFTISRDNAKNTVYLQMNSLKPEDTAVYYCARRTRTTRGKNGYWGQGTKVTVSS | high polyreactivity
QVQLVESGGGLVQAGGSLRLSCAASGITLFGYAMGWYRQAPGKERELVAGISRRGGSTYYADSVKGRFTISRDNAKNTVYLQMNSLKPEDTAVYYCAAVYVQPPATAQHYYYWGQGTQVTVSS | high polyreactivity
QVQLVESGGGLVQAGGSLRLRCAASGLIFYVYAMGWYRQAPGKERELVAAISYRGGSTYADSVKGRFTISRDNAKNTVYLQMNSLKPEDTAVYYCAAQRWYVYGLKYHYGYWGQGTQVTVSS | high polyreactivity
QVQLVESGGGLVQAGGSLRLSCAASGSIFNYNAMGWYRQEPGKERVLVATINKRAGRTYYADSVKGRFTISRDNAKNTFYLQMNSLNPEETAVYYCAAYGRNYSIYDYWGQGTQVTVSS | high polyreactivity

Sequence | polyreactivity (PSR sort gate)
QVQLVESGGGLVQAGGSLRLSCAASGFISPPYAMGWYRQAPGKERELVAAIRSSGGSTYYADSVKGRFTISRDNAKNTVYLQMNSLIPEDTAVYYCNADWIYISSYGWYSYDYWGQGTQVTVSS | high polyreactivity
QVQLVESGGGLVQAGGSLRLSCAASGLIFGYNAMGWYRQAPGKEREFVAGISSSGVSTYYADSVKGRFTISRDNAKNTVYLQMNSLKPEDTAVYYCAADTVDLEFDYWGQGTQVTVSS | low polyreactivity
QVQLVESGGGLVQAGGSLRLSCAASGSIFLAYLKGWYRQAPGKERELVAAISYRGVSTYYADSVKGRFTISRDNAKNTVYLQMTRLNPEDTAVYYFAAEHLWGAVFLYVRSTGLDYWGQGTQVTVSS | low polyreactivity
QVQLVESGGGLVQAGGSLRLSCAASGFTFSRNGMGWYRLAPGKERELVADITLSGASTYYADSVKGRFTISRDNAKNTVYLQMKSLKPEDTAVYYCAADPYHWRWGWRHDYWGQGTQVTVSS | low polyreactivity
QVQLVESGGGLVQAGGSLRLSCAASGGTFYRYAMGWYRQAPGKERELVAAISSSGGSTYYADSVKGRFTISRNNAKNTVYLQMNSLKPEDTAVYYCAAYSFQSHNFDYWGQGTQVTVSS | high polyreactivity
QVQLVESGGGLVQAGGSLRLSCAASGSTLGRYAMGWYRQAPGKERELVAAISRGGGSTYYADSVKGRFTISRDNAKNTVYLQMNSLKPEYTAVYYCAVGIVHRDSRYYYWGQGTQVTVSS | high polyreactivity
QVQLVESGGGLVQAGGSLRLSCAASGSTFVGNAMGWYRQAPGKERELVANITSGGSTNYADSVKGRFTISRDNAKNTVYLQMNSLKPEDTAVYYCAAVYLWSQRREYWGQGTQVTVSS | low polyreactivity
QVQLVESGGGLDQAGGSLRLSCAASGSTFSYNAKGWYRQAPGKERELVAAITYRGSSTYYADSVKGRFTSSRDNAKNTVDLQMNSLKPEDTAVYYCAVSYVRYRGSGLTAFNYWGQGTQVTVSS | high polyreactivity
QVQLVESGGGLVHAGGSIRLSCAASGRIFDYNVMGWYRQAQGTERELVAAISWDGDSTYYADSVKGRFTISRDNAKHTVYLQKNSLKPEDTAVYYCNRVEGRTRWADEMNYWGQGTQVTVSS | low polyreactivity
QVQLVESGGGLVQAGGSLRLSCAASGITFAENAMGWFRQAPGKERELVAAISGSGVDTYYADSVKGRFTISRDNAKNPVYLQMNSVKPEDTAVYYSNAVYYRSSYPSGRYGMDYWGQGTQVTVSS | high polyreactivity
QVQLVESGGGLVQAGGSLRLSCAASGRIFYANTMGWYRQAPGKEWELVAAITSGGSTNYADSVKGRFTISRDNAKNTVYGQKNSLKPEDTAVYYCATKQRRGYWGYITAYARYYWGQGTQVTVSS | high polyreactivity
QVQLVESGGGLVQAGGSLRLSCAASGRIFYPYAMGWYRQAPGKERELVAAIRRSGVDTYYADSVKGRFTISRDNAKNTVYFQMNSLKPEDTAVYYCAADPYWFFPHYDSWGQGTQVTVSS | low polyreactivity
QVQLVESGGGLVQAGGSLRISCAASGRIFDTYVMGWYRQAPGKERELVAAISGSGGSTYYADSVKGRFTISRDNAKNTVYLQMNSLKPEDTAVYYCAAARRYYAYRYDYWGQGTQVTVSS | high polyreactivity
QVQLLESGGGLVQAGGSLRLSCAASGRIFVYNVMGWSRQAPGKERELVADINGSGGGTIFADSVKGRFTISRDNAKNNVYFQMNSLKPVDTAVYYCNADSYEYHVPYYDYRYDYWGHGTQVTVSS | low polyreactivity
QVQLVESGGGLVQAGGSLRLSCAASGFIFKYYTMGWYRQAPGKERELVAAISKNAGSTYYADSVKGRFTISRDNAKNTVYLQMNSLKPEDTAVYYCARTYSTWYYYWGQGTQVTVSS | high polyreactivity
QVQLVESGGGLVQAGGSLRLSCAASGSTFDTNTMGWYIQAPGKERELVAAITSSGTSTSYADSVKGRFTISRDNAKNTVYLQMNSLKPEDTAVYYCAALRPGGGDYSDYDYWGQGTQVSVSS | low polyreactivity
QVQLVESGGGLVQAGGSLRLICAASGFSLYRNSMGWYRQAPGTERELVAAISSSGGRTYYADSVKGRFTISRDNAKNTVYLQMNSLKPEDTAVYYCAADFYRYGPQLGYWGQGTQVTVSS | high polyreactivity
QVQLVESGGGLVQAGGSLRLSCAASGSIFIRYAMGWSRQAPGTEREWVAAITSTGSTSYADSVNGRFTISRDNAKNTVYLQMNRLTPEDTAVYYCAKEASLVQGVIGGYPYDSWGQGTQVTVSS | low polyreactivity
QVQLVESGGGLVQAGGSLRLSCAASGSTFSYNAMGWYRQAPGKERELVAAISRRGGGTYYADSVKGRFTISRDKAKNTVSLHMNSLKPVDTAVYYCNADIWYKTYDYWGQGTQVTVSS | low polyreactivity
QVQLVESGGGLVQAGGSLRLSCAASGSTLDKYAMGWYRQAPGKERELVAAISSSGGSTYYADSVKGRFTISRDNAKNTVYLQMNSLKPEDTAVYYCAARFFRGRYLDDYWGQGTQVTVSS | high polyreactivity
QVQLVETGGGLVQAGGSLRLSCAASGFIFRKYAMGWYRQAPGKERELVAAITASGGSTYYADSVKGRFTISRDNAKNTVYLQMNSLKPEDTAVYYCATDYHGAERWLKYVYWGQGTQVTVSS | high polyreactivity
